Experimental data taken from article PMC4840364.

Target: glycoprotein Ibα (GPIbα) on human platelets, P07359
Test: flow cytometry on cells
Details: chain shown with the change, human platelets incubated 20 min, washed once, FITC-conjugated goat anti-mouse IgG, MFI of 10,000 cells, read off a plot

B1: wild-type 5G6 Fab fragment (recombinant) H:T102A; H:T103A; H:T104A; H:T105A; L:D93A (protein)
chain 1: QVTLKESGPGILQPSQTLSLTCSFSGFSLSTSNMGVVWIRQPSGKGLEWLLHILWNDGKFYNPALKSRLTISKDTYNNQVFLKIANVDTADTATYYCARLFAAAASGYFDVWGAGTTVTVSS
chain 2: DIQMTQSPASLSASVGETVTITCRASGNIYNYLAWYQQKQGKSPQLLVYNAKTLADGVPSRFSGSGSGTQYSLKINSLQPEDFGSYFCQHFWATPWTFGGGTKLEIK
[mAb] about 37 nM (read from x axis), parent: est. 320
  response: 8 a.u.
[mAb] about 110 nM (read from x axis), parent: est. 290
  response: 10 a.u.
